The record followed here is the RNAGym collection of RNA variant scans (doi:10.7554/elife.80360).

To fix the notation:
B1: HDV Ribozyme (parent)
chain: GGCCGGCAUGGUCCCAGCCUCCUCGCUGGCGCCGGCUGGGCAACAUUCCGAGGGGACCGUCCCCUCGGUAAUGGCGAAUGGGACCCA

The variants in the data set derive from B1. Description: self-cleavage, relative activity (ratio to wild type); higher = more cleavage; co-transcriptional.
In the case of G6U C86G, the self-cleavage came out at 0.467.

With G6U C21U, the self-cleavage is 0.122.

On to G39A U79G, for which the self-cleavage turned out to be 0.262.

G40C C49A: the self-cleavage amounted to 0.381.

G55A G59U: the self-cleavage amounted to 0.973.

As for G54A G73C, the self-cleavage is 0.527.

As for G34C G35U, the self-cleavage is 0.306.

On to C7A G80C, for which the self-cleavage is 0.192.

Consider A16U G35U, for which the self-cleavage stood at 0.208.

Consider C24G G68C, for which the self-cleavage turned out to be 0.126.

Regarding U9G C19U, the self-cleavage was 0.119.

For the variant C58A A71C, the self-cleavage stood at 0.831.

Consider C30G G50A, for which the self-cleavage came out at 0.0733.

As to C22G A43C, the self-cleavage came to 0.0811.

For C21A G82C, the self-cleavage is 0.104.

Regarding C19G G39U, the self-cleavage was determined as 0.0707.

Regarding G38A C86U, the self-cleavage was 0.138.

Turning to A16U C22A, the self-cleavage came out at 0.604.

Consider C18U C75U, for which the self-cleavage was 0.134.

C26G A56U: the self-cleavage is 1.23.

C3G G29C: the self-cleavage came out at 0.0396.

On to G25U G54A, for which the self-cleavage was 0.086.

C24A G74U: the self-cleavage is 0.16.

For the variant G38U A42G, the self-cleavage was 0.

U27C C62G: the self-cleavage amounted to 0.615.

With C58G G81U, the self-cleavage was 0.26.

Turning to G35A U37G, the self-cleavage came to 0.163.

For G35A U37A, the self-cleavage is 0.0898.

As to A56G, the self-cleavage was 0.995.

With C44A A71U, the self-cleavage was determined as 0.81.

Turning to A42G C75G, the self-cleavage came out at 0.

In the case of G5C C41U, the self-cleavage turned out to be 0.277.

With U12A G59U, the self-cleavage worked out at 0.214.

In the case of C44G G59U, the self-cleavage was 0.81.

Turning to A56U U79G, the self-cleavage turned out to be 0.787.

For the variant C3U G38A, the self-cleavage amounted to 0.0811.

As to G5U C18U, the self-cleavage was determined as 0.0504.

Regarding G34A U47C, the self-cleavage came out at 0.

As for G81C C85A, the self-cleavage was found to be 0.213.

For the variant C84U C85U, the self-cleavage came to 0.604.

With U23C A70C, the self-cleavage turned out to be 0.939.

For G52C C57U, the self-cleavage turned out to be 0.991.

With A78U G80U, the self-cleavage came out at 0.244.

With G34U C48U, the self-cleavage was determined as 0.112.

Regarding A16G U23C, the self-cleavage was determined as 1.14.

As to G31C C58G, the self-cleavage was 0.289.

For the variant A51C A87U, the self-cleavage is 0.881.

For the variant C24U U69A, the self-cleavage worked out at 0.617.

With A45U G74A, the self-cleavage came out at 0.513.

C19G C84G: the self-cleavage turned out to be 0.0941.

For U27C G54C, the self-cleavage was determined as 0.538.

As to C3U G59U, the self-cleavage worked out at 0.943.

A8C G59C: the self-cleavage turned out to be 0.923.

Regarding C49A C64U, the self-cleavage amounted to 0.831.

On to C19A A71U, for which the self-cleavage was determined as 0.0978.

For the variant U23G A45U, the self-cleavage came out at 0.312.

Take G39U G82A: the self-cleavage amounted to 0.27.

For the variant G1A A45G, the self-cleavage was 0.185.

With C4U C36A, the self-cleavage stood at 0.

Consider A42U C61A, for which the self-cleavage is 0.47.

For the variant C3A G31U, the self-cleavage stood at 0.0339.

For the variant U27G G28A, the self-cleavage worked out at 0.499.

Take C30U C49A: the self-cleavage was determined as 0.698.

G29U A77C: the self-cleavage turned out to be 0.13.

As to A56C G68A, the self-cleavage was 1.11.

On to G34U A70U, for which the self-cleavage is 0.182.

As for C19G A77U, the self-cleavage is 0.0437.

Regarding C7A A70U, the self-cleavage amounted to 0.356.

With A16U C21G, the self-cleavage is 0.0665.

Take C33A A45C: the self-cleavage was 0.133.

With C7U C86U, the self-cleavage came out at 0.678.

For G28A A78C, the self-cleavage was determined as 0.0378.

For the variant G1C U47C, the self-cleavage came to 0.399.

Regarding U37C G54U, the self-cleavage is 1.02.

On to C21A G29U, for which the self-cleavage was 0.

For U9A G54C, the self-cleavage was found to be 0.935.

On to C66U G80C, for which the self-cleavage was 0.153.

On to G10U G67C, for which the self-cleavage came out at 0.572.

Turning to G10U G67U, the self-cleavage was 0.819.

In the case of G1U U65A, the self-cleavage came to 0.191.

On to G31C A83U, for which the self-cleavage was determined as 0.173.

As to C3U U20A, the self-cleavage was 0.0308.

As to C22A A43C, the self-cleavage was found to be 0.111.

Regarding C18G U23C, the self-cleavage turned out to be 0.227.

As for U23A G54U, the self-cleavage stood at 0.937.

C14U G54C: the self-cleavage was determined as 1.2.

As to C18G C24A, the self-cleavage stood at 0.0755.

In the case of U37G G50A, the self-cleavage was determined as 0.113.

With C19U U65A, the self-cleavage came out at 0.0791.

Turning to C36A U46A, the self-cleavage worked out at 0.244.

For G1C C49G, the self-cleavage was found to be 0.0898.

As to A51C C58A, the self-cleavage was 0.779.

Regarding U12C G81A, the self-cleavage worked out at 0.095.

For the variant G31U A71U, the self-cleavage came out at 0.181.

Consider G28A A51G, for which the self-cleavage was determined as 0.0326.

G31A U46G: the self-cleavage worked out at 0.0852.

In the case of G10A C85G, the self-cleavage is 0.892.

Take G29U G82C: the self-cleavage was 0.0545.

For the variant U37G A71C, the self-cleavage was found to be 0.0831.

In the case of C32G C62G, the self-cleavage came out at 0.277.

As to A43U A56C, the self-cleavage was 0.374.

Take G29U C33G: the self-cleavage turned out to be 0.0369.

Turning to C36G G39U, the self-cleavage came out at 0.0652.

On to A51U C75U, for which the self-cleavage turned out to be 0.177.

As to C21U G38U, the self-cleavage worked out at 0.135.

As for C63A A83G, the self-cleavage amounted to 0.712.

In the case of G52A A83U, the self-cleavage was 0.475.

Turning to G52C A83U, the self-cleavage came to 0.389.

As to G31C G53A, the self-cleavage was 0.572.

In the case of C22U G52C, the self-cleavage turned out to be 0.635.

For the variant G40A A83C, the self-cleavage stood at 0.272.

As to G54A G74U, the self-cleavage came to 0.562.

Regarding C41G C75U, the self-cleavage was determined as 0.095.

In the case of C7A G74C, the self-cleavage amounted to 0.131.

Take G53A U69C: the self-cleavage came to 1.11.

Regarding U65C G67A, the self-cleavage came out at 0.706.

With U23A A43U, the self-cleavage came to 0.481.

For the variant G38A G40U, the self-cleavage is 0.149.

Consider U47A G52A, for which the self-cleavage is 0.975.

With C7G A71U, the self-cleavage turned out to be 0.0639.

For the variant C18G U47G, the self-cleavage turned out to be 0.256.

Regarding A51U U69G, the self-cleavage was determined as 0.98.

On to G5A G54C, for which the self-cleavage was 0.225.

As for C22G C86G, the self-cleavage was determined as 0.0779.

Turning to U27C C49G, the self-cleavage stood at 0.962.

For U12A C84G, the self-cleavage came out at 0.554.

Turning to A16C C24A, the self-cleavage is 0.277.

With G5U A16G, the self-cleavage is 0.175.

Regarding C32U C63U, the self-cleavage was found to be 0.817.

Turning to G17U A56C, the self-cleavage amounted to 0.415.

With C21G C48G, the self-cleavage was 0.115.

On to G38C G74U, for which the self-cleavage was 0.0739.

Turning to C41G G74U, the self-cleavage came out at 0.47.

For A8G C66A, the self-cleavage is 0.886.

Consider U27G G73U, for which the self-cleavage came to 0.0723.

Turning to G28C A56G, the self-cleavage turned out to be 0.107.

Regarding G40A A45U, the self-cleavage amounted to 0.563.

With C64A C84A, the self-cleavage was 1.15.

For the variant C15A G50U, the self-cleavage is 0.674.

C30G U47G: the self-cleavage was 0.0678.

Take G17U C19U: the self-cleavage was 0.199.

On to C33A G76U, for which the self-cleavage was determined as 0.326.

As for G17U U60G, the self-cleavage turned out to be 0.522.

G50A G82A: the self-cleavage worked out at 0.614.

With C26A U37C, the self-cleavage came to 1.13.

With G5A U72A, the self-cleavage is 0.101.

G55C A78C: the self-cleavage was found to be 0.111.

As to C63A G76A, the self-cleavage amounted to 0.875.

As for G53A C58U, the self-cleavage stood at 0.987.

Turning to G6A C32U, the self-cleavage is 1.12.

On to C3A G25C, for which the self-cleavage is 0.0198.

G10U G35C: the self-cleavage worked out at 0.0723.

C32G G53C: the self-cleavage was determined as 0.213.

C19U G80U: the self-cleavage came out at 0.0642.

As to G29C G54U, the self-cleavage is 0.204.

Regarding G11U U46A, the self-cleavage stood at 0.18.

For U65G C75U, the self-cleavage stood at 0.212.

As to G29A A45C, the self-cleavage was 0.

For G5U U79C, the self-cleavage is 0.123.

For G25A G31U, the self-cleavage came out at 0.0536.

On to C21G U47G, for which the self-cleavage is 0.185.

With G2C C4U, the self-cleavage is 0.475.

As for C19U C63G, the self-cleavage was determined as 0.0707.

Take G29A C33A: the self-cleavage came out at 0.104.

Consider G39A U69G, for which the self-cleavage stood at 0.305.

For the variant G10A G53U, the self-cleavage turned out to be 0.857.

For the variant C7U C14G, the self-cleavage was found to be 0.308.
